The supplement of paper PMC12764529
± gives the half width of the 95% confidence interval.

Test: folding stability dG unfold from trypsin proteolysis; higher = more stable
Method in brief: (§1)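 Sequencing followed digestion of designed mini-proteins with trypsin and chymotrypsin, each at 11 concentrations in threefold dilutions together with a no-protease condition. The mini-proteins were under 80 residues, had no cysteine, sat in a PA-tagged cDNA display construct, and were kept only if AlphaFold2 dimer inter-PAE was above 15. From the counts, Bayesian fitting gave K50, and unfolding free energy was derived against a sequence-predicted unfolded-state K50 and a shared folded-state K50, per protease or combined.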

Sequence | folding stability dG unfold [kcal/mol]
SAGGSAGGKKKVKYYKIKEVKIEKDEDGNYTITVKVDGKTFTITIPKEKIKPGMKLKDIVIKIKSAGGSAGG [r6_255_TrROS_Hall] | 1.91 ± 0.041
SAGGSAGGSAPVLVLETESGVKFETLSLGPGPGALALIVTPDKPALALINLDDPNNIKILASAGGSAGGSAG [r3_450_TrMRF] | 1.55 ± 0.045
SAGPPGQPVKTIEIMIEFPPGQTMEEARERVEEIADEIQRKFPKIKSIDVDVQKDDDTYYVNANITIPYSAG [r5_446_TrROS] | 0.848 ± 0.048
SAGGSAGGSAKKYVLLVTYRHPENGETRTVLVEVETEEEVERAVKELAPPEFDEVKVYVLPASAGGSAGGSA [r18_258_TrMRF] | 2.83 ± 0.15
SAGGSAGGSAMSEEERRRRAEEERRKKPPVFKITEITVERDEDGNLRVTFRLEDGSTVTIELSAGGSAGGSA [r18_423_TrROS_Hall] | 1.89 ± 0.039
SDETVELPTVYTLYFGKDGTPRYYITVTLGDGPVAMELPEVSPDVKDGDVVPVKVPSSVVTSYSVSSAPASA [r9_769_JUSTAS] | 0.671 ± 0.071
SLDPGEPVYRIKVKIEMWNPNGKPIAEFTIPIRTLEEAKEAIKEMAREIAEKMGHPDMPIRIKDIEIEPYSA [r9_376_TrROS] | 2.29 ± 0.033
SAGGSAGGPPPAKVVEVREVTLEDLENLDKLLVVFPDGKVYTSPEALRKWLEEGKPVLVAVFEGSAGGSAGG [r6_827_TrMRF] | 1.6 ± 0.084
SAGGSAGGSMIIIVKLPNGEELPIEVEGEEEAEKIAEEIVKALIEKGITPVSVEIRPIKPEEGSAGGSAGGS [r12_301_TrMRF] | 3.13 ± 0.13
SAGGSAGGSAGGSIVVRITPNPETGTVTIDVYRVLPPGVLRPGAGFTVPLSLIPPGAVVGSAGGSAGGSAGG [r7_455_TrMRF] | 0.973 ± 0.018
SAGEEPPEVTIKVVEKDGKLVIEVEYNGKTLTITLEDGEKIEIKFPEGMSEEELLEEAKRLAKELAEKSAGG [r19_170_TrROS_Hall] | 3.05 ± 0.35
SAGGMPPGQVVRLRLERVSPTWVRLYFPETGEVLYFPVRPDATLAEAEAIARELAERLGYPVEIETVSAGGS [r16_446_TrMRF] | 3.76 ± 0.077
SAGGSEKKVLVLKFRHPENDKPLFSVRIVLEKPPEDSYKAKIELLDLPEDYVLSPEAIKAILEALKSAGGSA [r2_7_TrMRF] | 2.05 ± 0.036
SAGGGRARLIELKEARFNPETGVLELTALVEFPEIGTLVVFRIRVPLEGEPRIEIEVEVYPIKPGEASAGGS [r16_207_TrMRF] | 3.17 ± 0.07
SAGGPNIELEFETYRDPDGMLVIKFHIRIKFGNKPVYIFVEGVIPPDGEAQIEDAYIFDADNGEWIPISAGG [r13_932_TrROS] | 2.9 ± 0.25
SAGKKKTVTIYLRVETPEEARKLVEELAKKLGAEVTSVEIEKVDGKYYVTVTIKVDGKEIKIVIEFEPSAGG [r19_262_TrROS_Hall] | 2.04 ± 0.045
SAGGSKKKIYKIKIKIEVINEETGEKKTVEIEIEAESLEEALAAIAKALLPEGQTVKIVDIEIEEVSAGGSA [r2_320_TrROS_Hall] | 3.42 ± 0.069
MEIIKKLKIPDYEIVSVKTKKIGNKVIVVVVLKKEKEYYVIVAEINPETKEIKIISIKKLKENETLEDFISS [r1_383_TrMRF] | 3.2 ± 0.26
SMPEKYIVRVEVRGRDGKTVTFEAEATVDSSDFDDFIEAILEAPGLEDADEVRFYVYRLGTGRPEEFTVPSA [r9_97_TrMRF] | 2.01 ± 0.069
SMGSITITLPATPEELRELLREKGISPELAPSWEEVKEALKKAFPKNVTVTINPKSPVSEEAAKAAREGSSA [r9_74_JUSTAS] | 0.462 ± 0.038
SAGGSAGGSAGPVKLTLEVPEEEAEELAEALREAGYEVEIERDEETKRLRVTITVDPEALSAGGSAGGSAGG [r11_1043_TrROS_Hall] | 1.78 ± 0.095

Sequence | folding stability dG unfold [kcal/mol]
KTISSDELLELLGVSKSELKKLPLEAIVDEVKKALPPGVAVSAKAEPIPENPSYTIVVELKNGEPVTITLDS [r1_340_TrMRF] | 1.06 ± 0.041
SAGGSAPPFYIAINPDKPKSIHIMPPGSPDMRDDDGSKVIPFRTEEEFLKLIQEIKKKGVDKIHIYSAGGSA [r15_1004_TrROS] | -0.0618 ± 0.18
SAGGVREIAKRIANFAREHGYEVEVDEIEPPPNGYVVIDAKIQMRDGGKPVHEFPISIRFPPPPGDPSAGGS [r8_102_TrROS] | 3.98 ± 0.43
SAGGSAGGSSYTTSTATDPNADVTTTTTTYPDSIVTPVWDPRTGKVVETVTTTPDGTTTTVAASAGGSAGGS [r12_563_JUSTAS] | 0.543 ± 0.068
SAGGGMNISVDPNQSVTIPVTRIENGVPVETTVTISLPAGSTISPEGDNIIINYPHTGQTITLPTTLISAGG [r13_275_JUSTAS] | 1.36 ± 0.043
SAGGSAGGSAGGDDNDKEPIGEVTVEVIIPPQIPIRIRWDIYKDPPNGNAMMNMDIDIHSAGGSAGGSAGGS [r10_6_TrROS] | 0.638 ± 0.12
SAGGSAGGSAKPKVVLVEYDEKTGKFKIVFPDGKELEITGLTPEQIKELAKSLGADYVIIESAGGSAGGSAG [r3_78_TrMRF] | 3.38 ± 0.12
SAGGSAGGSSPPLEILDPVSATLPDGGTLTVAKAAGSYYLVTTTTYDPATGTATSTTTVVPLESAGGSAGGS [r20_15_JUSTAS] | 0.0164 ± 0.088
SAGGSASMTTKRPVSPELRAKVEAAAAAGDPAITVTLPVTLPDGRTVTLTVTKDPTADTFTATVVSSAGGSA [r15_700_JUSTAS] | 0.0823 ± 0.33
SAGGSAGGSAGGSPVSPKIVTTDPGPNVITTVYYSPEDGKVLSTSTTVVPPLPPGEILTSAGGSAGGSAGGS [r10_1051_JUSTAS] | 1.45 ± 0.085
SAGGSAGGSAGGSQDLVKITIKLPGGEEKEITTPAEEIDKAIKELGIKKEDVEILEITEVSAGGSAGGSAGG [r7_211_JUSTAS] | 1.13 ± 0.093
SAGGSAGGSMETVTVLLNTPGTPVTFTFPVPAGVGEEAVKELVRKALPEVEIEVVEITTTPAASAGGSAGGS [r12_427_JUSTAS] | 0.338 ± 0.073
SAGGPKKRKWVTFTIDIYIPTPPGQSIEDEARKLAENLGIEITDVEVEPHPNGMVKIDVTVTIWIPYSAGGS [r8_292_TrROS] | 2.84 ± 0.062
SAMTVVIPPNLTALTEDGRPIHPDQVVEVYEAEAFPELGRVVARVKVFDPVSGEETEERLVLFFPDGAESAG [r14_258_TrMRF] | 1.26 ± 0.033
SAGGMMKLNPKTLETKTTTVPLPDGSTVTLTTKLVELKFPNGEVELVTLTVETFPSEPTLTVLEEKPLSAGG [r19_158_JUSTAS] | -0.0226 ± 0.083
SAGGSAMKIKRDNGKVRIEIDFPPEMKNPERMLMNIRSAINENPNKPIKVTMPPGHREWAKRLLKESAGGSA [r15_89_TrROS] | 0.219 ± 0.19
SAGGSAGGSATKTIKVKNADGETVELTVEKREDGSYKITLTFPDGTKKTFTIKPGEKIVIKPSAGGSAGGSA [r18_115_TrROS_Hall] | 2.42 ± 0.11
SAGGSAGGEISPEDIESVETETRTLPNGLKITRTRVRVKKTNQWFELVRIEPLPAEELSEEELKSAGGSAGG [r6_757_TrROS_Hall] | 1.37 ± 0.053
SAGGSAGGSAMITTYDPKTGLVYELVPDPVPGVGVERLVVRVVTVEEFPDAIVRKVEVRPESAGGSAGGSAG [r3_409_JUSTAS] | -0.211 ± 0.22
SAGGSAGGSAGGKATLGEDGFLVIEREVELPDGPYRPETLVIPLPELTPEEVERLLETESAGGSAGGSAGGS [r10_1096_TrMRF] | 1.24 ± 0.13
SAGGNLDKEFVRDIIENFGFTRIEVEEHPNRKVVTFRFENMDVVIRPDGQIEIENPGGEPVFQIEVPSAGGS [r8_147_TrROS] | 1.31 ± 0.031

Test: folding stability dG unfold from chymotrypsin proteolysis; higher = more stable
Method in brief: as §1

Sequence | folding stability dG unfold [kcal/mol]
SAGGSAGGKKKVKYYKIKEVKIEKDEDGNYTITVKVDGKTFTITIPKEKIKPGMKLKDIVIKIKSAGGSAGG [r6_255_TrROS_Hall] | 3.57 ± 0.038
SAGGSAGGSAPVLVLETESGVKFETLSLGPGPGALALIVTPDKPALALINLDDPNNIKILASAGGSAGGSAG [r3_450_TrMRF] | 0.799 ± 0.11
SAGPPGQPVKTIEIMIEFPPGQTMEEARERVEEIADEIQRKFPKIKSIDVDVQKDDDTYYVNANITIPYSAG [r5_446_TrROS] | 0.372 ± 0.19
SAGGSAGGSAKKYVLLVTYRHPENGETRTVLVEVETEEEVERAVKELAPPEFDEVKVYVLPASAGGSAGGSA [r18_258_TrMRF] | 2.79 ± 0.046
SAGGSAGGSAMSEEERRRRAEEERRKKPPVFKITEITVERDEDGNLRVTFRLEDGSTVTIELSAGGSAGGSA [r18_423_TrROS_Hall] | 3.33 ± 0.088
SDETVELPTVYTLYFGKDGTPRYYITVTLGDGPVAMELPEVSPDVKDGDVVPVKVPSSVVTSYSVSSAPASA [r9_769_JUSTAS] | 0.777 ± 0.096
SLDPGEPVYRIKVKIEMWNPNGKPIAEFTIPIRTLEEAKEAIKEMAREIAEKMGHPDMPIRIKDIEIEPYSA [r9_376_TrROS] | 2.21 ± 0.045
SAGGSAGGPPPAKVVEVREVTLEDLENLDKLLVVFPDGKVYTSPEALRKWLEEGKPVLVAVFEGSAGGSAGG [r6_827_TrMRF] | 1.96 ± 0.049
SAGGSAGGSMIIIVKLPNGEELPIEVEGEEEAEKIAEEIVKALIEKGITPVSVEIRPIKPEEGSAGGSAGGS [r12_301_TrMRF] | 2.28 ± 0.17
SAGGSAGGSAGGSIVVRITPNPETGTVTIDVYRVLPPGVLRPGAGFTVPLSLIPPGAVVGSAGGSAGGSAGG [r7_455_TrMRF] | 1.17 ± 0.047
SAGEEPPEVTIKVVEKDGKLVIEVEYNGKTLTITLEDGEKIEIKFPEGMSEEELLEEAKRLAKELAEKSAGG [r19_170_TrROS_Hall] | 1.9 ± 0.25
SAGGMPPGQVVRLRLERVSPTWVRLYFPETGEVLYFPVRPDATLAEAEAIARELAERLGYPVEIETVSAGGS [r16_446_TrMRF] | 3.779 ± 0.014
SAGGSEKKVLVLKFRHPENDKPLFSVRIVLEKPPEDSYKAKIELLDLPEDYVLSPEAIKAILEALKSAGGSA [r2_7_TrMRF] | 2.58 ± 0.11
SAGGGRARLIELKEARFNPETGVLELTALVEFPEIGTLVVFRIRVPLEGEPRIEIEVEVYPIKPGEASAGGS [r16_207_TrMRF] | 4.31 ± 0.056
SAGGPNIELEFETYRDPDGMLVIKFHIRIKFGNKPVYIFVEGVIPPDGEAQIEDAYIFDADNGEWIPISAGG [r13_932_TrROS] | 4.6 ± 0.15
SAGKKKTVTIYLRVETPEEARKLVEELAKKLGAEVTSVEIEKVDGKYYVTVTIKVDGKEIKIVIEFEPSAGG [r19_262_TrROS_Hall] | 3.03 ± 0.031
SAGGSKKKIYKIKIKIEVINEETGEKKTVEIEIEAESLEEALAAIAKALLPEGQTVKIVDIEIEEVSAGGSA [r2_320_TrROS_Hall] | 3.89 ± 0.079
MEIIKKLKIPDYEIVSVKTKKIGNKVIVVVVLKKEKEYYVIVAEINPETKEIKIISIKKLKENETLEDFISS [r1_383_TrMRF] | 3.95 ± 0.11
SMPEKYIVRVEVRGRDGKTVTFEAEATVDSSDFDDFIEAILEAPGLEDADEVRFYVYRLGTGRPEEFTVPSA [r9_97_TrMRF] | 3.03 ± 0.06
SMGSITITLPATPEELRELLREKGISPELAPSWEEVKEALKKAFPKNVTVTINPKSPVSEEAAKAAREGSSA [r9_74_JUSTAS] | 1.45 ± 0.017
SAGGSAGGSAGPVKLTLEVPEEEAEELAEALREAGYEVEIERDEETKRLRVTITVDPEALSAGGSAGGSAGG [r11_1043_TrROS_Hall] | 2.2 ± 0.056
